Values quoted from earlier work in paper PMC7826847.
Where two headings read alike, the source gives them in different places.

Experiments:
[1] = molecular target: Nectin-3 (UniProt Q9NQS3)
[2] = molecular target: Nectin-3 (UniProt Q9NQS3); remark: listed apart in the source

Chain of Nectin-3 (Q9NQS3 58-404): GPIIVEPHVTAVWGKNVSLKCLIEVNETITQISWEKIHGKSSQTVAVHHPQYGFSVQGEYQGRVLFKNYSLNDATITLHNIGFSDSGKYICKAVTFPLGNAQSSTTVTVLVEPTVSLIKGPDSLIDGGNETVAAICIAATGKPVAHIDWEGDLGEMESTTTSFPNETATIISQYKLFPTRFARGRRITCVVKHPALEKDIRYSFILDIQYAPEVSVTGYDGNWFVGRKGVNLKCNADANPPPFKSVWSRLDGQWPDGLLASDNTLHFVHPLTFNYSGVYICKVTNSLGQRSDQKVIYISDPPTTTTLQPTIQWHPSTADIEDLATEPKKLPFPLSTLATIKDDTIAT
Chain of Nectin-2 (Q92692 32-360): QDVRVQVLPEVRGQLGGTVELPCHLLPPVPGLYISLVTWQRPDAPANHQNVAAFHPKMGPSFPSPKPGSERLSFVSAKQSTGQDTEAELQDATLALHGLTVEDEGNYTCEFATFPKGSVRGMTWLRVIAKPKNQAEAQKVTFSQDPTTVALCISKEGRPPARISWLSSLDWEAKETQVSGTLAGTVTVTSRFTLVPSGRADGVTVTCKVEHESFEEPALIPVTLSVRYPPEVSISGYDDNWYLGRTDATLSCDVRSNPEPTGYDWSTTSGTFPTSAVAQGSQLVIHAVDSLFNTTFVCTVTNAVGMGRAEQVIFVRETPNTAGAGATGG
Chain of Nectin-1 (Q15223 31-355): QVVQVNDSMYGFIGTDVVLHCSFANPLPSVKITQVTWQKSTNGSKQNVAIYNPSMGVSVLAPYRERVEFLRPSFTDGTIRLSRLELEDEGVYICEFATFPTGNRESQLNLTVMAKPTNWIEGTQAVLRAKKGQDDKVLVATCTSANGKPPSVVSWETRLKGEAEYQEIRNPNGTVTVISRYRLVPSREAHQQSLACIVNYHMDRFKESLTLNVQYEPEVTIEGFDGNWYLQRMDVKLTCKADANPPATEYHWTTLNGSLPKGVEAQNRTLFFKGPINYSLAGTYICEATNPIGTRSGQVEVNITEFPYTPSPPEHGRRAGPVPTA

Substance | Kd [1] | Kd [2]
Nectin-1 (from UniProt Q15223) | 2.3 nM | –
Nectin-2 (from UniProt Q92692) | – | 360 nM
